# B1: MFF (parent)
# chain: YTEGISQRMRVPEKLKVAPPNADL
# Variants of: B1
# Test: protein stability index of a GFP-peptide fusion (GPS, HEK-293T) (PSI 1-6); higher = more stable
# Conditions: c terminus: a fixed tail appended
# 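Further: lentivirally expressed fusions sorted by FACS into six bins by GFP to DsRed ratio, PSI derived from sequencing read proportions per bin multiplied by bin number.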
row,Variant,protein stability index
1,YTEGISQRMRVPEKLKVCPPNADL [A18C],2.77
2,YTEGISQRMRVPEKLKVLPPNADL [A18L],2.88
3,YTEGISQRMRVPEKLKVRPPNADL [A18R],2.67
4,YTEGISQRMRVPEKLKVDPPNADL [A18D],3.19
5,YTEGISQRMRVPEKLKVFPPNADL [A18F],2.2
6,YTEGISQRMRVPEKLKVASPNADL [P19S],2.62
7,YTEGISQRMRVPEKLKVAFPNADL [P19F],2.44
8,YTEGISQRMRVPEKLKVAHPNADL [P19H],2.54
9,YTEGISQRMRVPEKLKVAEPNADL [P19E],2.56
10,YTEGISQRMRVPEKLKVAWPNADL [P19W],1.91
11,YTEGISQRMRVPKKLKVAPPNADL [E13K],2.2
12,YTEGISQRMRVPHKLKVAPPNADL [E13H],2.98
13,YTEGISQRMRVPPKLKVAPPNADL [E13P],2.65
14,YTEGISQRMRVPIKLKVAPPNADL [E13I],2.49
15,YTEGISQRMRVPVKLKVAPPNADL [E13V],2.79
16,YTEGISQRMRVPWKLKVAPPNADL [E13W],2.16
17,YTEQISQRMRVPEKLKVAPPNADL [G4Q],3.5
18,YTECISQRMRVPEKLKVAPPNADL [G4C],3.47
19,YTEPISQRMRVPEKLKVAPPNADL [G4P],3.79
20,YTEDISQRMRVPEKLKVAPPNADL [G4D],4.46
21,YTEAISQRMRVPEKLKVAPPNADL [G4A],3.9
22,YTEHISQRMRVPEKLKVAPPNADL [G4H],3.46
23,YTENISQRMRVPEKLKVAPPNADL [G4N],3.75
24,YTEYISQRMRVPEKLKVAPPNADL [G4Y],2.69

row,Variant,protein stability index
1,YTETISQRMRVPEKLKVAPPNADL [G4T],3.45
2,YTEGISQRMRRPEKLKVAPPNADL [V11R],2.48
3,YTEGISQRMREPEKLKVAPPNADL [V11E],2.84
4,YTEGISQRMRKPEKLKVAPPNADL [V11K],2.76
5,YTEGISQRMRDPEKLKVAPPNADL [V11D],2.75
6,YTEGISQRMRAPEKLKVAPPNADL [V11A],2.89
7,YTEGISQRMRLPEKLKVAPPNADL [V11L],2.59
8,YTEGISQRMRMPEKLKVAPPNADL [V11M],3.11
9,YTEGISQRMRWPEKLKVAPPNADL [V11W],2.18
10,YTEGISQRMRVREKLKVAPPNADL [P12R],2.82
11,YTEGISQRMRVCEKLKVAPPNADL [P12C],2.14
12,YTEGISQRMRVTEKLKVAPPNADL [P12T],2.09
13,YTEGISQRMRVIEKLKVAPPNADL [P12I],2.21
14,YTEGISQRMRVVEKLKVAPPNADL [P12V],2.64
15,YTEGISQRMRVHEKLKVAPPNADL [P12H],2.77
16,YTEGISQRMRVAEKLKVAPPNADL [P12A],3.06
17,YTEGISQRMRVQEKLKVAPPNADL [P12Q],2.78
18,YTEGISQRMRVWEKLKVAPPNADL [P12W],2.46
19,YTSGISQRMRVPEKLKVAPPNADL [E3S],2.54
20,YTCGISQRMRVPEKLKVAPPNADL [E3C],2.28
21,YTKGISQRMRVPEKLKVAPPNADL [E3K],2.41
22,YTWGISQRMRVPEKLKVAPPNADL [E3W],1.53
23,YTDGISQRMRVPEKLKVAPPNADL [E3D],3.24
24,YTNGISQRMRVPEKLKVAPPNADL [E3N],3.3

row,Variant,protein stability index
1,STEGISQRMRVPEKLKVAPPNADL [Y1S],4.48
2,KTEGISQRMRVPEKLKVAPPNADL [Y1K],4.27
3,PTEGISQRMRVPEKLKVAPPNADL [Y1P],4.64
4,VTEGISQRMRVPEKLKVAPPNADL [Y1V],4.25
5,RTEGISQRMRVPEKLKVAPPNADL [Y1R],4.22
6,ITEGISQRMRVPEKLKVAPPNADL [Y1I],3.87
7,GTEGISQRMRVPEKLKVAPPNADL [Y1G],4.57
8,DTEGISQRMRVPEKLKVAPPNADL [Y1D],4.48
9,YTEGISQRMRVPEKLKVAPPNAGL [D23G],2.72
10,YTEGISQRMRVPEKLKVAPPNANL [D23N],2.65
11,YTEGISQRMRVPEKLKVAPPNAML [D23M],2.51
12,YTEGISQRMRVPEKLKVAPPNATL [D23T],2.38
13,YTEGISQRMRVPEKLKVAPPNARL [D23R],2.95
14,YTEGISMRMRVPEKLKVAPPNADL [Q7M],2.59
15,YTEGISYRMRVPEKLKVAPPNADL [Q7Y],1.75
16,YTEGISPRMRVPEKLKVAPPNADL [Q7P],3.4
17,YTEGISERMRVPEKLKVAPPNADL [Q7E],3.26
18,YTEGISVRMRVPEKLKVAPPNADL [Q7V],3.21
19,YTEGISTRMRVPEKLKVAPPNADL [Q7T],2.71
20,YTEGISHRMRVPEKLKVAPPNADL [Q7H],1.81
21,YTEGISQRMRVPEKLCVAPPNADL [K16C],2.81
22,YTEGISQRMRVPEKLVVAPPNADL [K16V],2.9
23,YTEGISQRMRVPEKLQVAPPNADL [K16Q],2.67
24,YTEGISQRMRVPEKLDVAPPNADL [K16D],3.87

row,Variant,protein stability index
1,YTEGISQRMRVPEKLSVAPPNADL [K16S],3.62
2,YTEGISQRMRVPEKLEVAPPNADL [K16E],2.93
3,YTEGISQRMRVPEKLIVAPPNADL [K16I],3.23
4,YTEGISQRMRVPEKLYVAPPNADL [K16Y],2.81
5,YTEGISQRMRVPEKLPVAPPNADL [K16P],2.83
6,YTEGISQRMRVPEKLGVAPPNADL [K16G],3.27
7,YTEGISQRMRVPEWLKVAPPNADL [K14W],2.11
8,YTEGISQRMRVPERLKVAPPNADL [K14R],3.55
9,YTEGISQRMRVPEILKVAPPNADL [K14I],2.71
10,YTEGISQRMRVPEDLKVAPPNADL [K14D],3.13
11,YTEGISQRMRVPEPLKVAPPNADL [K14P],3.32
12,YTEGISQRMRVPEALKVAPPNADL [K14A],3.06
13,YQEGISQRMRVPEKLKVAPPNADL [T2Q],3.03
14,YVEGISQRMRVPEKLKVAPPNADL [T2V],2.46
15,YDEGISQRMRVPEKLKVAPPNADL [T2D],4.18
16,YWEGISQRMRVPEKLKVAPPNADL [T2W],3.17
17,YFEGISQRMRVPEKLKVAPPNADL [T2F],3.2
18,YEEGISQRMRVPEKLKVAPPNADL [T2E],4.85
19,YCEGISQRMRVPEKLKVAPPNADL [T2C],2.65
20,YGEGISQRMRVPEKLKVAPPNADL [T2G],3.85
21,YREGISQRMRVPEKLKVAPPNADL [T2R],3.88
22,YYEGISQRMRVPEKLKVAPPNADL [T2Y],3.2

# Reference: the supplement of paper PMC10567573
